Laboratory results taken from patent US20250230222A1 (NORTHWESTERN UNIVERSITY, published 2025).

Molecular target: SARS-nCoV-2 Spike RBD (Raybiotech, catalog no. 230-30162), recombinant wildtype (SARS-CoV-2, UniProt P0DTC2 319-541)

B1: IgG 106/107 (antibody, V domains shown)
VH: EVQLVESGGGLVQPGGSLRLSCVASGITVSANYMSWVRQAPGKGLEWVSVIYSGGSTFYADSVKGRFTISRDNSKNTLYLQMNNLRADDTAVYSCARDFRGATAFDIWGQGTMVTVSS
VL: QSALTQPASVSGSPGQSITISCTATSSDVDDYNYVSWYQQHPGKAPKLLIYDVNNRPSGVSNRFSGSKSGNTASLTISGLQAEDEADYYCSSYTSSSTGVFGSGTKVTVLG
IC50: < 0.5 nM
